Key:
Test in all cases: holdup assay
Design in all cases: key: below the threshold = too weak to quantify, mostly under pKd 3.1 to 4
APBA2_2, Q99767 = molecular target: T1, APBA2_2, Q99767
T1 sequence (Q99767 654-744, limits assumed, looked up): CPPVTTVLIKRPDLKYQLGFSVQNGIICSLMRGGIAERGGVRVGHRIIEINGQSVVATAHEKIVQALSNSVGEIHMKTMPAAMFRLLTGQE

DLG1_1, Q12959 = molecular target: DLG1_1, Q12959
DLG4_3, P78352 = molecular target: DLG4_3, P78352
FRMPD2_3, Q68DX3 = molecular target: FRMPD2_3, Q68DX3
GORASP1, Q9BQQ3 = molecular target: GORASP1, Q9BQQ3
GRIP1_4, Q9Y3R0 = molecular target: T2, GRIP1_4, Q9Y3R0
T2 sequence (Q9Y3R0 467-571, limits assumed, looked up): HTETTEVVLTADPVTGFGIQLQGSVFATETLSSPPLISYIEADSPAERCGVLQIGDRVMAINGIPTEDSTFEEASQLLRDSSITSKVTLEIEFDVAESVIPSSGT

GRIP2_6, Q9C0E4 = molecular target: GRIP2_6, Q9C0E4
HTRA2, O43464 = molecular target: HTRA2, O43464
IL16_1, Q14005 = molecular target: IL16_1, Q14005
LNX1_1, Q8TBB1 = molecular target: LNX1_1, Q8TBB1
LNX1_2, Q8TBB1 = molecular target: LNX1_2, Q8TBB1
LRRC7, Q96NW7 = molecular target: T3, LRRC7, Q96NW7
T3 sequence (Q96NW7 1440-1537, limits assumed, looked up): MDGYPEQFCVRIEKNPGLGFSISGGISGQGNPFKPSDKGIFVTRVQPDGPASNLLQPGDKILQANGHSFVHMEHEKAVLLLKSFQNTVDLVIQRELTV

MAGI1_2, Q96QZ7 = molecular target: MAGI1_2, Q96QZ7
MAGI2_4, Q86UL8 = molecular target: MAGI2_4, Q86UL8
MPDZ_5, O75970 = molecular target: T4, MPDZ_5, O75970
T4 sequence (O75970 695-796, limits assumed, looked up): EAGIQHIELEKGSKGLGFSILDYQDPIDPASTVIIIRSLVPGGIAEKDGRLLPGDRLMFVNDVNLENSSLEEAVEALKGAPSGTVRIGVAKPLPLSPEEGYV

MPP2, Q14168 = molecular target: T5, MPP2, Q14168
T5 sequence (Q14168 180-250, limits assumed, looked up): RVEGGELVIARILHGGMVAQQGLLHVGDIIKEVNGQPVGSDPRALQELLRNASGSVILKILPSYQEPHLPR

MPP6, Q9NZW5 = molecular target: T6, MPP6, Q9NZW5
T6 sequence (Q9NZW5 125-219, limits assumed, looked up): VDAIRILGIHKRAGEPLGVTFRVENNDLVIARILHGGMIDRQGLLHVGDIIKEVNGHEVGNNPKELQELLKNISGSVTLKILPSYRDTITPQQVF

MPP7, Q5T2T1 = molecular target: T7, MPP7, Q5T2T1
T7 sequence (Q5T2T1 134-230, limits assumed, looked up): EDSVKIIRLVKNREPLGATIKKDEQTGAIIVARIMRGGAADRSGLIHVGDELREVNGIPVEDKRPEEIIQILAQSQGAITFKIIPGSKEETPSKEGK

NHERF3_1, Q5T2W1 = molecular target: T8, NHERF3_1, Q5T2W1
T8 sequence (Q5T2W1 4-100, limits assumed, looked up): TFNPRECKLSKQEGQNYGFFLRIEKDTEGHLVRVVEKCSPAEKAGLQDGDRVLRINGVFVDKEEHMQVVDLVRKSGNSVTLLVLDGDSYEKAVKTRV

PDZD2_2, O15018 = molecular target: T9, PDZD2_2, O15018
T9 sequence (O15018 329-429, limits assumed, looked up): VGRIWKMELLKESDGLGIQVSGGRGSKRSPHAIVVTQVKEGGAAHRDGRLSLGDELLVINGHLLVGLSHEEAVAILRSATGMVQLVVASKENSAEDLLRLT

PDZD7_3, Q9H5P4 = molecular target: T10, PDZD7_3, Q9H5P4
T10 sequence (Q9H5P4 857-944, limits assumed, looked up): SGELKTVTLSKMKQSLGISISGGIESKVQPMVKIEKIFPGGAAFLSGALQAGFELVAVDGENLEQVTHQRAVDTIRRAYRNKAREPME

RHPN1, Q8TCX5 = molecular target: T11, RHPN1, Q8TCX5
T11 sequence (Q8TCX5 508-602, limits assumed, looked up): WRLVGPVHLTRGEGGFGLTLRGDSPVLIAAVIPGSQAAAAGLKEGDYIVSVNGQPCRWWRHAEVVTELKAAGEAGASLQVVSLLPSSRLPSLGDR

SCRIB_2, Q14160 = molecular target: SCRIB_2, Q14160
SYNJ2BP, P57105 = molecular target: T12, SYNJ2BP, P57105
T12 sequence (P57105 8-110, limits assumed, looked up): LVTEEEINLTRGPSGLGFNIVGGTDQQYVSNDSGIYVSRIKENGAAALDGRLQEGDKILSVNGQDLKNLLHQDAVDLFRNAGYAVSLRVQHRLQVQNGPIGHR

TJP3_3, O95049 = molecular target: T13, TJP3_3, O95049
T13 sequence (O95049 375-456, limits assumed, looked up): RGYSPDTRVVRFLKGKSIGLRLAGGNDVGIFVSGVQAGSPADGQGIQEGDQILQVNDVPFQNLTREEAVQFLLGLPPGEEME

[1] = plain residues with an end cap or a label only (N-terminal biotin on a linker: ado-ado)
[2] = plain residues with an end cap or a label only (N-terminal biotin on a linker: ahx)

IL16_1, Q14005, sequence (Q14005 210-306): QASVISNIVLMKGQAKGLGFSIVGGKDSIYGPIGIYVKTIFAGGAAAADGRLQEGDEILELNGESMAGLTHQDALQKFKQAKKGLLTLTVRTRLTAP
LNX1_1, Q8TBB1, sequence (Q8TBB1 261-371): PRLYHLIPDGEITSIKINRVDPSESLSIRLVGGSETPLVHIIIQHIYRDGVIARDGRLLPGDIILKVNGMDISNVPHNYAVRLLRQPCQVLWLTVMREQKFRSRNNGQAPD
LNX1_2, Q8TBB1, sequence (Q8TBB1 371-470): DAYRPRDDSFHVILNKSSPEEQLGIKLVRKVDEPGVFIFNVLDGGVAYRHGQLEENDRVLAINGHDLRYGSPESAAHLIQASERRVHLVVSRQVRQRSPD
DLG4_3, P78352, sequence (P78352 306-403): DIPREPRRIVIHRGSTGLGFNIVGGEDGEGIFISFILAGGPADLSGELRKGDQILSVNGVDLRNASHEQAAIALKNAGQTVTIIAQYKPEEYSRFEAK
MAGI1_2, Q96QZ7, sequence (Q96QZ7 456-580): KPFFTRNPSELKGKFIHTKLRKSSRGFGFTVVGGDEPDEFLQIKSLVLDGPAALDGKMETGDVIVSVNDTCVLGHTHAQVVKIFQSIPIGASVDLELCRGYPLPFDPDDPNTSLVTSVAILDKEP
MAGI2_4, Q86UL8, sequence (Q86UL8 772-865): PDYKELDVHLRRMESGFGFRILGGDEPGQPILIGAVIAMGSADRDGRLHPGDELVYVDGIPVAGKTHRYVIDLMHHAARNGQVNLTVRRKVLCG
FRMPD2_3, Q68DX3, sequence (Q68DX3 1073-1166): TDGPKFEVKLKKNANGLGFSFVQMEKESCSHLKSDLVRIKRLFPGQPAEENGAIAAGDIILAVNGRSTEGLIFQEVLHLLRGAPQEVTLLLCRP
SCRIB_2, Q14160, sequence (Q14160 857-960): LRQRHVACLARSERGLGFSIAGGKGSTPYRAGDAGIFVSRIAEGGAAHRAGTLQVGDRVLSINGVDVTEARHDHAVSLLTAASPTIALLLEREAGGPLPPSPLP
GORASP1, Q9BQQ3, sequence (Q9BQQ3 1-208): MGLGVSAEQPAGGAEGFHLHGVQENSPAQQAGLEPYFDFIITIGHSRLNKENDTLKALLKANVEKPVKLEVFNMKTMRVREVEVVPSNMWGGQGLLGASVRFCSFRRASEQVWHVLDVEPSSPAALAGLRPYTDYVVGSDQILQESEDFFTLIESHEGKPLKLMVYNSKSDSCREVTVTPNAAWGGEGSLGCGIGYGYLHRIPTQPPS
HTRA2, O43464, sequence (O43464 355-458): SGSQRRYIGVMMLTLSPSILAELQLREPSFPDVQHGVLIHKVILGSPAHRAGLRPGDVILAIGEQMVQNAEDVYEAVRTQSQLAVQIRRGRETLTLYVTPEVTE
GRIP2_6, Q9C0E4, sequence (Q9C0E4 648-740): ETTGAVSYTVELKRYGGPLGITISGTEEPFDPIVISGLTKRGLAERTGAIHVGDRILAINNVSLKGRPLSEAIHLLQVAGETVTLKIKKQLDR

GEDRSPPTAL [MKNK1, Q9BUB5]
pKd (APBA2_2, Q99767; [1]): below the threshold | pKd (DLG1_1, Q12959; [1]): below the threshold | pKd (DLG4_3, P78352; [1]): 3.5 | pKd (FRMPD2_3, Q68DX3; [1]): below the threshold | pKd (GORASP1, Q9BQQ3; [1]): below the threshold | pKd (GRIP1_4, Q9Y3R0; [1]): below the threshold | pKd (GRIP2_6, Q9C0E4; [1]): below the threshold | pKd (HTRA2, O43464; [1]): below the threshold | pKd (IL16_1, Q14005; [1]): below the threshold | pKd (LNX1_1, Q8TBB1; [1]): below the threshold | pKd (LNX1_2, Q8TBB1; [1]): below the threshold | pKd (LRRC7, Q96NW7; [1]): below the threshold | pKd (MAGI1_2, Q96QZ7; [1]): below the threshold | pKd (MAGI2_4, Q86UL8; [1]): below the threshold | pKd (MPDZ_5, O75970; [1]): below the threshold | pKd (MPP2, Q14168; [1]): below the threshold | pKd (MPP6, Q9NZW5; [1]): 3.59 | pKd (MPP7, Q5T2T1; [1]): below the threshold | pKd (NHERF3_1, Q5T2W1; [1]): 3.71 | pKd (PDZD2_2, O15018; [1]): below the threshold | pKd (PDZD7_3, Q9H5P4; [1]): 3.8 | pKd (RHPN1, Q8TCX5; [1]): below the threshold | pKd (SCRIB_2, Q14160; [1]): below the threshold | pKd (SYNJ2BP, P57105; [1]): below the threshold | pKd (TJP3_3, O95049; [1]): below the threshold

SVTSERETNI [SLC16A7, O60669]
pKd (APBA2_2, Q99767; [1]): below the threshold | pKd (DLG1_1, Q12959; [1]): 3.58 | pKd (DLG4_3, P78352; [1]): below the threshold | pKd (FRMPD2_3, Q68DX3; [1]): below the threshold | pKd (GORASP1, Q9BQQ3; [1]): below the threshold | pKd (GRIP1_4, Q9Y3R0; [1]): below the threshold | pKd (GRIP2_6, Q9C0E4; [1]): below the threshold | pKd (HTRA2, O43464; [1]): below the threshold | pKd (IL16_1, Q14005; [1]): below the threshold | pKd (LNX1_1, Q8TBB1; [1]): below the threshold | pKd (LNX1_2, Q8TBB1; [1]): below the threshold | pKd (LRRC7, Q96NW7; [1]): below the threshold | pKd (MAGI1_2, Q96QZ7; [1]): below the threshold | pKd (MAGI2_4, Q86UL8; [1]): below the threshold | pKd (MPDZ_5, O75970; [1]): below the threshold | pKd (MPP2, Q14168; [1]): below the threshold | pKd (MPP6, Q9NZW5; [1]): 3.52 | pKd (MPP7, Q5T2T1; [1]): 3.48 | pKd (NHERF3_1, Q5T2W1; [1]): 3.49 | pKd (PDZD2_2, O15018; [1]): 4.65 | pKd (PDZD7_3, Q9H5P4; [1]): 4.69 | pKd (RHPN1, Q8TCX5; [1]): 4.57 | pKd (SCRIB_2, Q14160; [1]): 3.69 | pKd (SYNJ2BP, P57105; [1]): 3.63 | pKd (TJP3_3, O95049; [1]): below the threshold

QNTDDVQTSF [ACE2, Q9BYF1]
pKd (APBA2_2, Q99767; [2]): below the threshold | pKd (DLG1_1, Q12959; [2]): below the threshold | pKd (DLG4_3, P78352; [2]): below the threshold | pKd (FRMPD2_3, Q68DX3; [2]): below the threshold | pKd (GORASP1, Q9BQQ3; [2]): below the threshold | pKd (GRIP1_4, Q9Y3R0; [2]): below the threshold | pKd (GRIP2_6, Q9C0E4; [2]): below the threshold | pKd (HTRA2, O43464; [2]): below the threshold | pKd (IL16_1, Q14005; [2]): below the threshold | pKd (LNX1_1, Q8TBB1; [2]): below the threshold | pKd (LNX1_2, Q8TBB1; [2]): below the threshold | pKd (LRRC7, Q96NW7; [2]): below the threshold | pKd (MAGI1_2, Q96QZ7; [2]): below the threshold | pKd (MAGI2_4, Q86UL8; [2]): below the threshold | pKd (MPDZ_5, O75970; [2]): below the threshold | pKd (MPP2, Q14168; [2]): below the threshold | pKd (MPP6, Q9NZW5; [2]): below the threshold | pKd (MPP7, Q5T2T1; [2]): below the threshold | pKd (NHERF3_1, Q5T2W1; [2]): 4.4 | pKd (PDZD2_2, O15018; [2]): below the threshold | pKd (PDZD7_3, Q9H5P4; [2]): 3.51 | pKd (RHPN1, Q8TCX5; [2]): 4.38 | pKd (SCRIB_2, Q14160; [2]): below the threshold | pKd (SYNJ2BP, P57105; [2]): below the threshold | pKd (TJP3_3, O95049; [2]): below the threshold

LPAVCYDIDI [PTTG2, Q9NZH5]
pKd (APBA2_2, Q99767; [1]): below the threshold | pKd (DLG1_1, Q12959; [1]): below the threshold | pKd (DLG4_3, P78352; [1]): below the threshold | pKd (FRMPD2_3, Q68DX3; [1]): below the threshold | pKd (GORASP1, Q9BQQ3; [1]): 3.89 | pKd (GRIP1_4, Q9Y3R0; [1]): below the threshold | pKd (GRIP2_6, Q9C0E4; [1]): 4.68 | pKd (HTRA2, O43464; [1]): below the threshold | pKd (IL16_1, Q14005; [1]): below the threshold | pKd (LNX1_1, Q8TBB1; [1]): below the threshold | pKd (LNX1_2, Q8TBB1; [1]): below the threshold | pKd (LRRC7, Q96NW7; [1]): below the threshold | pKd (MAGI1_2, Q96QZ7; [1]): below the threshold | pKd (MAGI2_4, Q86UL8; [1]): 3.67 | pKd (MPDZ_5, O75970; [1]): below the threshold | pKd (MPP2, Q14168; [1]): below the threshold | pKd (MPP6, Q9NZW5; [1]): 3.54 | pKd (MPP7, Q5T2T1; [1]): 4.27 | pKd (NHERF3_1, Q5T2W1; [1]): below the threshold | pKd (PDZD2_2, O15018; [1]): 4.17 | pKd (PDZD7_3, Q9H5P4; [1]): below the threshold | pKd (RHPN1, Q8TCX5; [1]): below the threshold | pKd (SCRIB_2, Q14160; [1]): below the threshold | pKd (SYNJ2BP, P57105; [1]): below the threshold | pKd (TJP3_3, O95049; [1]): below the threshold

KKMLQRRTLL [OR8G1, Q15617]
pKd (APBA2_2, Q99767; [1]): below the threshold | pKd (DLG1_1, Q12959; [1]): below the threshold | pKd (DLG4_3, P78352; [1]): below the threshold | pKd (FRMPD2_3, Q68DX3; [1]): below the threshold | pKd (GORASP1, Q9BQQ3; [1]): 4.06 | pKd (GRIP1_4, Q9Y3R0; [1]): below the threshold | pKd (GRIP2_6, Q9C0E4; [1]): below the threshold | pKd (HTRA2, O43464; [1]): below the threshold | pKd (IL16_1, Q14005; [1]): below the threshold | pKd (LNX1_1, Q8TBB1; [1]): below the threshold | pKd (LNX1_2, Q8TBB1; [1]): below the threshold | pKd (LRRC7, Q96NW7; [1]): below the threshold | pKd (MAGI1_2, Q96QZ7; [1]): 4.85 | pKd (MAGI2_4, Q86UL8; [1]): below the threshold | pKd (MPDZ_5, O75970; [1]): below the threshold | pKd (MPP2, Q14168; [1]): below the threshold | pKd (MPP6, Q9NZW5; [1]): below the threshold | pKd (MPP7, Q5T2T1; [1]): below the threshold | pKd (NHERF3_1, Q5T2W1; [1]): 4.94 | pKd (PDZD2_2, O15018; [1]): below the threshold | pKd (PDZD7_3, Q9H5P4; [1]): 4.61 | pKd (RHPN1, Q8TCX5; [1]): below the threshold | pKd (SCRIB_2, Q14160; [1]): below the threshold | pKd (SYNJ2BP, P57105; [1]): below the threshold | pKd (TJP3_3, O95049; [1]): below the threshold
